From patent US20250346673A1

Key:
[1] = molecular target: human BDCA2 (human) (UniProt Q8WTT0); experiment: FACS on CHOK1-hBDCA2 cells; EC50 table under the plot, unit from the x axis (nM); fit of a flat control curve
[2] = molecular target: cynomolgus BDCA2 (cynomolgus monkey); experiment: FACS on 293F-cynoBDCA2 cells; EC50 table under the plot, unit from the x axis (nM); fit of a flat control curve [continued) e.]
[3] = molecular target: human BDCA2 (human) (UniProt Q8WTT0); experiment: FACS on CHOK1-hBDCA2 cells; EC50 table under the plot, unit from the x axis (nM); fit of a flat control curve [continued) e.]

Sequence of cynomolgus BDCA2 (cynomolgus monkey) (chain, as listed by the source): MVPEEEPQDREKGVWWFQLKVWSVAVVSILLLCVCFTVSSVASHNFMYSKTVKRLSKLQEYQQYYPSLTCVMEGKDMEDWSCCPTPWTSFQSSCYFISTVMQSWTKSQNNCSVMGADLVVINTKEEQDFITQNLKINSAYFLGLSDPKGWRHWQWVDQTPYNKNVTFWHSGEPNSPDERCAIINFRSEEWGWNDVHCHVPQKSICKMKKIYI
Sequence of human BDCA2 (human) (Q8WTT0 whole entry): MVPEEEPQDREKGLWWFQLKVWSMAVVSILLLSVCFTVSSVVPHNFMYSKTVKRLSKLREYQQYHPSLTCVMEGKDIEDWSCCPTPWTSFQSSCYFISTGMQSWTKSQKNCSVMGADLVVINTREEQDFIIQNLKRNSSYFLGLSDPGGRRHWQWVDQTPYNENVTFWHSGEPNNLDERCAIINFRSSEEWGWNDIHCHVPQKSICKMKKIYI

hIgG1 (antibody)
EC50 [1]: 61.3 nM | EC50 [2]: 21.8 nM

mIgG1 (antibody)
EC50 [3]: 176000 nM | EC50 [2]: 20.6 nM
